Experimental data from patent US20210403600A1 (University of California, published 2021).

What was measured:
[1] = biological target: T1, human Factor XIa (blood-derived, Haematologic Technologies Inc.) (human, UniProt P03951 19-387; P03951 388-625); assay: ELISA, wells coated with hFXIa, anti-human IgG HRP, OD 450
T1 construct: It was biotinylated via primary amines for selections, Octet and Biacore; also called FXIa; human FXIa

[2] = biological target: T1, human Factor XIa (blood-derived, …); assay: SPR (Biacore T200), biotinylated FXIa captured on a CAP chip, IgG as analyte, 25 C
Cyno FXI = biological target: T2, Cyno FXI (Macaca fascicularis, UniProt A0A2K5VVW4); assay: ELISA, wells coated with cynomolgus FXI (zymogen), anti-human IgG HRP, OD 450
T2 construct: coating antigen 'FXI' of the chart titled 'Cyno FXI/FXIA'; also called cynomolgus monkey FXI (zymogen)

[3] = biological target: T1, human Factor XIa (blood-derived, …); assay: SPR (Biacore T200), biotinylated FXIa captured on a CAP chip, Fab as analyte, 37 C

B1: Clone 24 IgG (antibody, V domains shown)
VH: EVQLVQSGAEVKKPGASVKVSCKASGYTFTGYYMHWVRQAPGQGLEWMGWIDPDSGDTNYAQKFQGRVTMTRDTSISTAYMELSRLRSDDTAVYYCARLASGFRDYWGQGTLVTVSS
VL: DIVMTKSPSSLSASVGDRVTITCRASQGIRNDLGWYQQKPGKAPKRLIYAASSLQSGVPSRFSGSGSGTEFTLTISSLQPEDFATYYCLQHDIYASTFGPGTKVDIKR
notes: also called C24
Question: B1 was tested. Which “EC50 (read off the curve)” value [1] did it give?
Answer: ~1 ng/mL

B2: D4 IgG (antibody, V domains shown)
VH: not shown
VL: DIVMTQSPSSLSASVGDRVTITCRASQGIRNDLGWYQQKPGKAPKRLIYAASSLQSGVPSRFSGSGSGTEFTLTISSLQPEDFATYYCLQHDIYASTFGPGTKVDIKR
notes: also called D4 mAb; D4 anti-FXIa mAb
Question: B2 was tested. Which Kd [2] did it give?
Answer: 0.93 nM

Question: Does B2 bind (Cyno FXI)?
Answer: no binding (tested: not printed)

B3: C24 Fab (Fab, V domains shown)
VH: EVQLVQSGAEVKKPGASVKVSCKASGYTFTGYYMHWVRQAPGQGLEWMGWIDPDSGDTNYAQKFQGRVTMTRDTSISTAYMELSRLRSDDTAVYYCARLASGFRDYWGQGTLVTVSS
VL: DIVMTKSPSSLSASVGDRVTITCRASQGIRNDLGWYQQKPGKAPKRLIYAASSLQSGVPSRFSGSGSGTEFTLTISSLQPEDFATYYCLQHDIYASTFGPGTKVDIKR
notes: Fab format of clone 24; also called clone 24 Fab; anti-FXIa C24 Fab
Question: B3 was tested. Which Kd [3] did it give?
Answer: 0.0152 nM

B4: DEF Fab (Fab, V domains shown)
VH: EVQLVQSGAEVKKPGASVKVSCKASGYTFTGYYMHWVRQAPGQGLEWMGWIDPDEGDTNYAQKFQGRVTMTRDTSISTAYMELSRLRSDDTAVYYCARLASGFRDYWGQGTLVTVSS
VL: DIVMTKSPSSLSASVGDRVTITCRASQGIRNDLGWYQQKPGKAPKRLIYAASSLQSGVPSRFSGSGSGTEFTLTISSLQPEDFATYYCLQHDIYASTFGPGTKVDIKT
Question: Which Kd [3] does the source give for B4 here?
Answer: 0.0339 nM
